Residue numbers refer to the chain shown, from its start. Names and notes keep the numbering of the source.
T1: human MMP2 (pro-MMP2 activated with APMA) (human, UniProt P08253 30-660)
T1 sequence (looked up): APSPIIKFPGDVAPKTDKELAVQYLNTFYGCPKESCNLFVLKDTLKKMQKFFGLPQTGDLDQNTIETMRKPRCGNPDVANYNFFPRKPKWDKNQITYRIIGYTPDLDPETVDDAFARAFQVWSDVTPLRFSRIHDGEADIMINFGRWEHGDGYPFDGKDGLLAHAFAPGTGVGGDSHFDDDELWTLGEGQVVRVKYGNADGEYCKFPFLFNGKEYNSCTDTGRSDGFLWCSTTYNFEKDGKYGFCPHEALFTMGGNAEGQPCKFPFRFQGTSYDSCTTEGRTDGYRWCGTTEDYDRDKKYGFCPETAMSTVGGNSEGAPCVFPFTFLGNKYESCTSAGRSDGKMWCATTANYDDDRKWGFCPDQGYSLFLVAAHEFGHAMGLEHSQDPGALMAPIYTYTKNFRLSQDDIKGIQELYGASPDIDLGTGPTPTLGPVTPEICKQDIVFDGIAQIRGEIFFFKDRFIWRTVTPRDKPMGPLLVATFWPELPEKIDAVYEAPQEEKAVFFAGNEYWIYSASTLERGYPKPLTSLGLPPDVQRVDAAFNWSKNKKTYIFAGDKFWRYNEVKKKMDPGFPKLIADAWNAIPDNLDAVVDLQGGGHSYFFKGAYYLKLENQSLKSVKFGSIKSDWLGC

B1: wild-type TIMP-3 (native human tissue inhibitor of metalloproteinase 3) (other)
chain: CTCSPSHPQDAFCNSDIVIRAKVVGKKLVKEGPFGTLVYTIKQMKMYRGFTKMPHVQYIHTEASESLCGLKLEVNKYQYLLTGRVYDGKMYTGLCNFVERWDQLTLSQRKGLNYRYHLGCNCKIKSCYYLPCFVTSKNECLWTDMLSNFGYPGYQSKHYACIRQKGGYCSWYRGWAPPDKSIINATDP
B2: TIMP-3 mutein K45E, F57N, K94N, E96T, D110N, K112T, R138T (other)
chain: B1 chain with K22E, F34N, K71N, E73T, D87N, K89T, R115T
B3: TIMP-3 mutein K45S, F57N, T63N, K65T, K94N, E96T, G173T (other)
chain: B1 chain with K22S, F34N, T40N, K42T, K71N, E73T, G150T
B4: TIMP-3 mutein K45N, V47T, F57N, K94N, E96T, D110N, K112T, G173T, R186Q, K188Q (other)
chain: B1 chain with K22N, V24T, F34N, K71N, E73T, D87N, K89T, G150T, R163Q, K165Q
B5: TIMP-3 mutein K45S, F57N, K94N, E96T, D110N, K112T, R138T, G173T (other)
chain: B1 chain with K22S, F34N, K71N, E73T, D87N, K89T, R115T, G150T
B6: TIMP-3 mutein K45N, V47T, F57N, K75N, P77T, K94N, E96T, R138T, G173T (other)
chain: B1 chain with K22N, V24T, F34N, K52N, P54T, K71N, E73T, R115T, G150T
B7: TIMP-3 mutein K45S, F57N, T63N, K65T, K94N, E96T, R138T, G173T (other)
chain: B1 chain with K22S, F34N, T40N, K42T, K71N, E73T, R115T, G150T
B8: TIMP-3 mutein K50N, V52T, K94N, E96T, R138T, G173T (other)
chain: B1 chain with K27N, V29T, K71N, E73T, R115T, G150T
B9: TIMP-3 mutein K45E, K50N, V52T, K94N, E96T, D110N, K112T, R138T, G173T (other)
chain: B1 chain with K22E, K27N, V29T, K71N, E73T, D87N, K89T, R115T, G150T
B10: TIMP-3 mutein K50N, V52T, F57N, K94N, E96T, D110N, K112T, R138T (other)
chain: B1 chain with K27N, V29T, F34N, K71N, E73T, D87N, K89T, R115T
B11: TIMP-3 mutein K45N, V47T, F57N, K94N, E96T, D110N, K112T, R186N, K188T (other)
chain: B1 chain with K22N, V24T, F34N, K71N, E73T, D87N, K89T, R163N, K165T
B12: TIMP-3 mutein K45N, V47T, F57N, K94N, E96T, R138T, G173T (other)
chain: B1 chain with K22N, V24T, F34N, K71N, E73T, R115T, G150T
B13: TIMP-3 mutein K50N, V52T, F57N, K94N, E96T, R138T, G173T (other)
chain: B1 chain with K27N, V29T, F34N, K71N, E73T, R115T, G150T
B14: TIMP-3 mutein K45E, F57N, Q126N, R138T, G173T (other)
chain: B1 chain with K22E, F34N, Q103N, R115T, G150T
B15: TIMP-3 mutein K45S, F57N, H78N, Q80T, K94N, E96T, R138T, G173T (other)
chain: B1 chain with K22S, F34N, H55N, Q57T, K71N, E73T, R115T, G150T
B16: TIMP-3 mutein K45E, K49E, F57N, K94N, E96T, D110N, K112T, G173T, R186N, K188T (other)
chain: B1 chain with K22E, K26E, F34N, K71N, E73T, D87N, K89T, G150T, R163N, K165T
B17: TIMP-3 mutein K45N, V47T, F57N, V97N, K99T, R138T, G173T (other)
chain: B1 chain with K22N, V24T, F34N, V74N, K76T, R115T, G150T

Legend:
Assay in all cases: cell-based or functional assay
[1] = biological target: T1, human MMP2 (pro-MMP2 activated with …)
active MMP13 = active MMP13 (UniProt P45452 20-471, limits assumed)
[2] = biological target: T2, catalytic domain of human MMP9 (human, UniProt P14780 107-444, limits assumed)
[3] = biological target: T1, human MMP2 (pro-MMP2 activated with …); remark: listed apart in the source
[4] = biological target: T2, catalytic domain of human MMP9; remark: listed apart in the source

T2 sequence (P14780 107-444 limits assumed): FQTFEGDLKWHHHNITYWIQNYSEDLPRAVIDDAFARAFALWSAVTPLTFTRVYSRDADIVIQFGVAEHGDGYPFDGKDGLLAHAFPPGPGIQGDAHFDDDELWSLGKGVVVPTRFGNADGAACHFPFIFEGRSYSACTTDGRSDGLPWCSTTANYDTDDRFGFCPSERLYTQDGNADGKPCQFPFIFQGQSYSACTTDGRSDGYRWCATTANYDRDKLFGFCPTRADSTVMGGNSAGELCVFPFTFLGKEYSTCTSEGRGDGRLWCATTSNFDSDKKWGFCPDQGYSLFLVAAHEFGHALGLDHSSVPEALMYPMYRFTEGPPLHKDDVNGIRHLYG

Binder | MMP2 IC50 [1] [pM] | MMP13 IC50 (active MMP13) [pM] | MMP9 IC50 [2] [pM] | MMP2 Inhibition Shift [3] [fold] | MMP9 Inhibition Shift [4] [fold]
B1 | 600 | 900 | 1000 | – | –
B2 | – | – | – | 1 | 128
B3 | – | – | – | 2 | 16
B4 | – | – | – | 3 | 12
B5 | – | – | – | 6 | 24
B6 | – | – | – | 7 | 25
B7 | – | – | – | 8 | 16
B8 | – | – | – | 2 | 1
B9 | – | – | – | 2 | 1
B10 | – | – | – | 1 | 70
B11 | – | – | – | 3 | 8
B12 | – | – | – | 5 | 15
B13 | – | – | – | 2 | 91
B14 | – | – | – | 4 | 8
B15 | – | – | – | 5 | 18
B16 | – | – | – | 1 | 5
B17 | – | – | – | 6 | 8

Reference: patent publication US20190085054A1 (Amgen, published 2019)
